Biological target: GMPPA, Q96IJ6-1
Sequence (Q96IJ6 whole entry): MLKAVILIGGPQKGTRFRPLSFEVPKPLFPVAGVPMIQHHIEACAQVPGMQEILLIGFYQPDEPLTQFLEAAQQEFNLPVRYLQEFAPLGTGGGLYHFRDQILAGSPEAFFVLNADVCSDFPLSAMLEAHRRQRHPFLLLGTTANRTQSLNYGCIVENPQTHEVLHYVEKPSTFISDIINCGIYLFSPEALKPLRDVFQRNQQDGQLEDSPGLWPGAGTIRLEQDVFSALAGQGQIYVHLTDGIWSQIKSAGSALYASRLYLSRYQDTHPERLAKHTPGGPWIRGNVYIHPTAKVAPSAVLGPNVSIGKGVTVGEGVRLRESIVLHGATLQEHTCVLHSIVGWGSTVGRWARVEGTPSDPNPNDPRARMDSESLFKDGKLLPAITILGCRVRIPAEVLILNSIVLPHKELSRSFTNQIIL

Chain of Mannose-1-phosphate guanylyltransferase catalytic subunit beta (Homo sapiens), Q9Y5P6-1 R293W (Q9Y5P6 whole entry R293W): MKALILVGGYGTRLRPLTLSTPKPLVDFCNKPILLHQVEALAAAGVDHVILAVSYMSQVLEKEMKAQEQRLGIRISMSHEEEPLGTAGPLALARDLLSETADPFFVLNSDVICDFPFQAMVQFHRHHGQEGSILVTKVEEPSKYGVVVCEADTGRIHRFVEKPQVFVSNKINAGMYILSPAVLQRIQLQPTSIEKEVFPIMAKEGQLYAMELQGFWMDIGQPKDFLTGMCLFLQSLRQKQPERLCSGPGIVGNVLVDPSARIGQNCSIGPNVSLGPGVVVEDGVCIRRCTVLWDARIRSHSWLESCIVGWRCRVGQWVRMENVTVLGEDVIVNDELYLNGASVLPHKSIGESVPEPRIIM
Chain of Mannose-1-phosphate guanylyltransferase catalytic subunit beta (Homo sapiens), Q9Y5P6-1 R357H (Q9Y5P6 whole entry R357H): as the sequence (Q9Y5P6 whole entry R293W) above, with W293R, R357H counted along it
Chain of Mannose-1-phosphate guanylyltransferase catalytic subunit beta (Homo sapiens), Q9Y5P6-1 D334N (Q9Y5P6 whole entry D334N): as the sequence (Q9Y5P6 whole entry R293W) above, with W293R, D334N counted along it
Chain of Mannose-1-phosphate guanylyltransferase catalytic subunit beta (Homo sapiens), Q9Y5P6-1 L303F (Q9Y5P6 whole entry L303F): as the sequence (Q9Y5P6 whole entry R293W) above, with W293R, L303F counted along it
Chain of Mannose-1-phosphate guanylyltransferase catalytic subunit beta (Homo sapiens), Q9Y5P6-1 C266Y (Q9Y5P6 whole entry C266Y): as the sequence (Q9Y5P6 whole entry R293W) above, with C266Y, W293R counted along it

effect of a mutation on the interaction	Substance
with no effect	Mannose-1-phosphate guanylyltransferase catalytic subunit beta (Homo sapiens), Q9Y5P6-1 C266Y
with no effect	Mannose-1-phosphate guanylyltransferase catalytic subunit beta (Homo sapiens), Q9Y5P6-1 D334N
with no effect	Mannose-1-phosphate guanylyltransferase catalytic subunit beta (Homo sapiens), Q9Y5P6-1 L303F
with no effect	Mannose-1-phosphate guanylyltransferase catalytic subunit beta (Homo sapiens), Q9Y5P6-1 R293W
decreasing interaction strength	Mannose-1-phosphate guanylyltransferase catalytic subunit beta (Homo sapiens), Q9Y5P6-1 R357H

Reference: IntAct's records for PubMed 33986552
